# The DeepSol protein solubility set
# Assay: soluble on expression in E. coli; label from the status in PepcDB or PDB records
row,Sequence,soluble on expression in E. coli
1,MPQQTVEVKEVDVLIRGIWRKKKFTDIQKGQTFKIEENGRTKKYIARTDPYWDDMFETYIIDLLDKNKIRRNKLEHHHHHH,not soluble
2,MPQTSAWQLNDTTARPPPPPPPPGSEAGGSDGASMNGANTLPRVSKRVSAAGKTSNIPRFKRPHLPHSTRPLSAVLTSSSSPVVHRKISPSSSAPSTSSAHRRFSHLPQQHFHHHIHHNQTAVISEETLTTPRASTLNLNQTSVFPTAISQGSMPNSGTNTAEASMTSSVCAMETEGTNGDELAESRDMVSEMQRRCRIGPSGYPHLLKAKRLRFYRNGDQYFKGIQYALQSDRVKSMQPLMEDLMKTVICDSTALPHGIRHIFTIDGAQRITSVDQFEDGGGYVCSSTDAFKPVDYSRAAEPSWRLTLANRYNRHLETKKLALSVVEPCHENTDFVFPRIIKVIRNGVKPRRISRHLLNKKTARSFDQVLRDLTFVVKLDSGAIRKLFTLSGRPVLSLQDFFRDDDVFVAYGGNEKMAADDLLVASEEHKSVGSGTSSNMRRTSRRSTMPNRNESLRHDRSGSVIPDQDQQRLPPLLDEKFQLVRLIGDGNTAVVYEVIDKTNNDDRKAMKVIARENVIGKEHLIEMELAILQKIDHTFIVQLYDHWFVDDSYYLSLELIEMGDLFEHLRIVRRVPERDAVRMMTCLGQALEYIHELGIVHRDVKLENLLIVKDEFGELGVKLADFGLAAEMPKDFGVLSTICGTPTYVAPEVLNKTGYGCKVDIWAAGVILYAILVGFPPFQSSDGSEQDLFSAIMSGEFSFPSPSWDDVSWSVRHLIMCLIHTDPFHRYSAGELLNDEWMVNLGDVDPEYEEWAHRFVQSKMHVEEEQETPYEYYTSRRTSMDELSESAAVEFSYSCES,not soluble
3,MPRDVQVLPIATNTKVLRARSWSRLRFEIEYALERGTTSNSYVIEGDKTAIIDPPVESFMKIYLEALQQTVNLKKLDYVILGHFSPNRIPTFKALLELAPQITFVCSLPAAGDLRAAFPDDNLNILPMRGKETLDLGKGHVLKFLPIPSPRWPAGLCTYDVQTQILYTDKIFGAHICGDDVFDDNWESFKEDQRYYFNCLMAPHAIHVEAALEKISDLQVRLYAVGHGPLVRTSLIALTQAYADWSKAQKDREISVALLYASAYGNTATIARAIALGLTKGGVAVKSINCEFATPEEIQTNLEQVDGFLIGSPTIGGHAPTPINTALGIVLKVGDNNKLAGVFGSYGWSGEALDMIEGKLRDAGYRFGLDTLKVKFKPDDVTLKFCEEVGTDFAQTLKKAKKVRVPQQAATPVEQAVGRIVGSVCVITAKQGDVSTGMLGSWVSQATFNPPGLTVAIAKERAIESLMYPGGKFALNILSEGNHLEYMKHFRKNFAPGEDRFANFTTTEADNGCTVLADALAYVECSVDQRLECGDHWVVYATVDNGKLLKPDDVTAINHRKTGNHYLEHHHHHH,not soluble
4,MPRLILASTSPWRRALLEKLTIPFECAAPDVDETPMPGEAPRQLVLRLAQAKAQSLAARFPNHLIIGSDQICVLDGEITGKPLTEEKARQQLAKASGNIVTFYTGLALYNSASGHLQTEVEPFDVHFRHLSEAEIDDYVRKEHPLHCAGSFKSEGLGIALFERLEGRDPNTLIGLPLIALCQMLRREGFNPLQQ,not soluble
5,MPRSDGFSPRKNLRRSARDHSRSYAGQCNEDFDDMYAPSSRRRSSGGVDGNGYTRSGRKINHNRYYEEEYHEAISSEEDERRYRTRRSSNSMTYRQQVMQAIDESKRNQKVPPAKRKRIYLSDEEEEDFAEAAHVENTVPERATRRSTRRRSSMHEELGVSEQEESPVRRTRKAAKRLGSEQPEENLAADDPLPMEGGGEIVLPIAEIDGMAEQENEDLIEKIGREEEEEGAEEDEQSGEKDPEEEEDDSSNAESSEESTAPRQYSLRRRQPVVQFNASEARENRRARLEHHRVANQNRHHRNRNGSRRRRSDSDSDSDDMVLPRPDKRQSRPHMHNRGERERGRFMPINMTEKELQSAQHILMDRMRKTDAGQGASDIDPMSVDSSVGFDQVGGLGHHIQSLKEVVLFPMLYPEVFEKFRINPPKGVVFYGPPGTGKTLVARALANECRRGANKVAFFMRKGADCLSKWVGESERQLRLLFDQAYAMRPSIIFFDEIDGLAPVRSSKQDQIHASIVSTLLALMDGLDGRGEVVVIGATNRLDTLDPALRRPGRFDRELRFSLPDLNARRQILDIHTSKWEENKPIPETLDAIAERTSGYCGADLKFLCTEAVLIGLRSRYPHIYMCSERLKLDVATIKITSEHFGHAMRRITPASRRDLTIPSRPLDERTSILLGDTVSNLISLRIPQGYRCVENAMATASSELEQVVRALEPNPTVPAIRLLLCGSEQLADGGQTSYVLPAILAKLDHLPVFSLSVSSLLTDGRPEEAFSNAIQSAMRASATGPCIMLLPSIDEWIKVIPVSVQHMLITCLESMTGFTPILFLSTLDTSFEDAPEYVTEIFRHANCITLNPSRRTIRQKYFEHVIEKINTPPKVFDPRLMRDRRFVEFVEPVDPDEAEDYYEIIETPICMQDIMEKLNNCEYNHADKFVADLILIQTNALEYNPSTTKDGKLIRQMANTLRDAIDDLIECELDESFVERIETVSRMLQDAGVTPTSDKLLTEIPKGFARKKAWSMTNSLAKEIEQWTSEREAENQKMLSKLGVAAPTLELVVVPVEDMKSEEGTSTSTDGVPASAGNKKKLLKKKKGQKKSKTGESEEHDEDSTVEDAGEDTIVENLEIKKNQETPNSEHDIEMKDASKDSTPSVQISIAEKELIVSKPATCELIQCCVEKSEGWSVSELERLSSVLSHTIERFRDEWNRENLPAQLTQIVREWQTADDSNNTIVNGTLNKSNGNLANGH,not soluble
6,MPSCEINLIFNDSEEPVTLRDTGIIMLVPVILRSVQSEFPDFENQDNVKVTSPLSIPFNKKAGVFLFEYIQKYVPPNDDTIHELTVVENYKEAGQKTLDELKEIIELANFFECTDFMECLGFVIGKKLEDKSVEEIAAYMGVECNAPGHFFDEADGWVHPPADAFQNVQ,not soluble
7,MPSLAELTKSLSIAFENGDYAACEKLLPPIKIELIKNNLLIPDLSIQNDIYLNDLMITKRILEVGALASIQTFNFDSFENYFNQLKPYYFSNNHKLSESDKKSKLISLYLLNLLSQNNTTKFHSELQYLDKHIKNLEDDSLLSYPIKLDRWLMEGSYQKAWDLLQSGSQNISEFDSFTDILKSAIRDEIAKNTELSYDFLPLSNIKALLFFNNEKETEKFALERNWPIVNSKVYFNNQSKEKADYEDEMMHEEDQKTNIIEKAMDYAISIENIV,soluble
8,MPSNCRRFEGKVAIVTAATKGIGLAIAERLLDEGASVVIGSRNQKNVDEAIEYLKNKGLTKVAGIAGHIASTDDQKKLVDFTLQKFGKINILVNNHGINPAFGHILEVSDQVWDKLFEVNVKAGFQMTKLVHPHIAKEGGGAIIFNASYSAYKSPPGIAAYGVTKTTLVGLTRALAMGLAKDNIRVNGIAPGVIKTKMSQVLWDGGEDAEKELTDIQEIALGRLGVPDDCAGTVAYLASDDSSYITGEMIIIAGGVQARL,not soluble
9,MPSSGQLYGDEERELTPTPAIPEEGVYEVKYSNRRTNVVRLLPNGFQERKLRRLANLSAKLFNEVNFERRQQFFHEGKVNIEETYKKYYEKYKVILGVNAQAVLNKNNEAWSSFFSLLKLKKEGKLPPHMNHVSPPGYWKDREAGKRKQILVIRQDRYKVDAENHKLILKDFDMEIDFIGRLKWYGKQGRLEIIFDETRNAWYAHIPIEVGVEETKAGKKSKHVVKGERKSIQISKPKGNKVASIDLGINVIASVVVNDGTWLLYKGVRTKEDYFYFQKRIAEVQSLADRTRNIGEYDAYLELLREKRRLFKKLTRRLTHLYRNLASHLIETLYELGVSTIYLGYPFNIVQEKGNKFTVNMWSYRKLMESIELKAQEYGMKVFEVVEYNTSKYCAYHDVEVKRNPRGVINCPLGHKLHSDLNGALNILKKALGVIVNAVKKPLSFIVDHNRVAPIKGCNPLEHHHHHH,not soluble
10,MPSSRGVSLSISLAEAEVAPGGMLRGEVKVKVDSSHKNGIVYEAIRLVFLAVEKSCVWDDQGEFDELLNKYTSSRVYLDRHVTLTGFKTQSEDAETTAQVREEMLFLQHCATPYAAVAPTKPKKDAYRHYTREELLHGAIQMAATTKYTTGGVVAPDTNDSTNICMGSQKPVQAGDGPRSAAAAPRGGATEVEFPVLMPGTHRFPFLFRLPPWLPPSFYYSFVGAKGQLQYSASATMLFPGNGAGSWWFKICKDTSGAMRDMGKTFNRAAGSGAPSGKRARKRPGRDESGEGVIDLDDDEVGERMNRRLTSMPVYGPSDLTTAIHFDVLSVMPRRQLVAEYYQIDTHNLHQRPTNAPREAENAVSSSSNRNGAKKLQRRVDKSNDVGDVKPSGVSTGLLEHHEDTHLALSALYQTFRCGWLGNMCCLQPQNAIEAEVLVVGARTVLLADDVGALQALGVRPPITSDAPQLGGPALHAPDIVPSPDMAVAAPNTPWPVGGITLRVRVRNYCPTHTVECVRVELKVMLEIFKSLKTPHTFPGISYSSFDYTIPIPPGNQALFDVRLGLAPRFRRHETDSESLLPPPGVRTANMTSNTFLQVSFPGMYTYVEEEEEAKGVVIMAETVNLNDEVLELPVRYS,not soluble
11,MPTKGRVFVLGHSQDKDCVSRETGRRTTSITVPRDKCGVETVQHGKGAGYTSSVNIVISFHDKFLTKVDRAYNITCLYAPTGDVVSYALTVQPSLLKDIQVLAEQPSCEYEVFDVRTRRPAEIVHVNAPLEHVWTCDGTNLDLFCMTVHDCVINEGKSKRRSKIIDSEGCSLDTTRLPNLRYENNKLSARVMSKAFRFGDDVAVEFECNVRLDLRNGTSCPRPRC,not soluble
12,MPTLGFRFRAYTDEQTLRALKAQLKLACKIYNTLRWADIYFYQRDGKGLTQTELRQLALDLRKQDDEYKQLYSQVVQQIADRYYEAKKRFFEGLARFPKEKKPHKYYSLVYTQSGWKILHVREIRKGSKKNKKKLITLKLSNLGTFKVIVHRDFPLDKVKRVVVKLTRSERIYITFVVEGYEFPKLPNTGKVVAIDVGVEKLLVTPDGEYFPNLRPLEKALWKVKHLHRELSRKKFLSNNWFKAKVKLARAYEHLKNLRSDLYMKLGKWFAEHYDVVVMEGIHAKQLVGKSLRSLRRRLSDVGFGELRDVLKYQLEKYGKKLILVNPAYTSKTCARCGYVKNDLSLSDRVFVCPNCGWIADRDYNASLNILKGAGSERSLVPVELRPLPVPALRYWHGRAVKQEAPSFMRGLEHHHHHH,soluble
13,MPTPEKRLRLMQLASNSLPVGGYSWSQGLEWAVEAGWVEDSAAFEHWQQLQMEQSFFAVDLPLLARLYRACEAGDPDSAGRWTAYLLACRETRELRDEERNRGAAFTRLLVDWQPDCPAEWRKLCQQSQLTGMAWLGVRWQISVSDLALSLGYSWIESAVMAGVRLVPYGQLAAQQLIMRLCARYAANMDSALATPDHAIGSATPLASIASARHETQYSRLFRS,not soluble
14,MPTSELTKERDLRDSKPIWADTPRTGIRSTHTPAANHYDTIVVGAGISGALVSHALHRPGQTMLIIDRREPVMGSSVASTAMIQHEIDTPLTELRKMIGKDAADRAWQRSARAVLRLEEIVSSLGISCSMKRKQALYLAGDEMGSRALKAEAAAREEAGIEARFLSTGELREQYGLDRTAAILSDISASANPAQLTAGLLRHTAAAGAEIVSKLEITDLRNLGDEVVLATADGKILSARSVVFCTGYEFLKMLESPKHQIISTWALASKKGLDLPDWLESHIVWEASDPYLYLRTDRDGRVIAGGEDEENPTAYQSERKLTAKAEAIRRKVEKLIGIDMGAPDYRWAAAFGTTTTGLPLIGAVPGMKNVYAVMGFGGNGITFSQIAAEIVAAAVNGGKDPDADLFRFGLEHHHHHH,soluble
